{"source": "patent US20220332804A1", "about": "(CSL INNOVATION, published 2022)", "binders": {"B1": {"name": "RF16-242 (antibody, human IgG4 S228P, lambda, V domains shown)", "VH": "EVQLLQSGAEVKKPGESLKISCKGSGYSFTSYWIGWVRQMPGKGLEWMGIIYPGDSDTRYSPSFQGQVTISADKSISTAYLQWSSLKASDTAMYYCARRGHYGDYFDYWGQGTLVTVSS", "VL": "SYELTQPPSVSVSPGQTARITCSGDALPKKYAYWYHQKSGQAPVLVIYEDRRRPSEIPERFSGSSSGTMATLTITGAQVEDEGVYFCYSRDRAGNQRVFGGGTQLTVLG", "notes": "pH-dependent anti-C2 antibody from a phage display library"}}, "experiment_in_all_cases": "SPR, KD relative to WT C2;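 note: biacore SPR at 37 °C, anti-C2 mAbs captured on anti-human IgG chips with alanine or serine point mutants of C2 as analyte, KD from 1:1 fit compared with wild-type C2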", "key": {"[1]": {"biological_target": "T1, human C2 D269A (human, UniProt P06681 21-752)", "T1 sequence": "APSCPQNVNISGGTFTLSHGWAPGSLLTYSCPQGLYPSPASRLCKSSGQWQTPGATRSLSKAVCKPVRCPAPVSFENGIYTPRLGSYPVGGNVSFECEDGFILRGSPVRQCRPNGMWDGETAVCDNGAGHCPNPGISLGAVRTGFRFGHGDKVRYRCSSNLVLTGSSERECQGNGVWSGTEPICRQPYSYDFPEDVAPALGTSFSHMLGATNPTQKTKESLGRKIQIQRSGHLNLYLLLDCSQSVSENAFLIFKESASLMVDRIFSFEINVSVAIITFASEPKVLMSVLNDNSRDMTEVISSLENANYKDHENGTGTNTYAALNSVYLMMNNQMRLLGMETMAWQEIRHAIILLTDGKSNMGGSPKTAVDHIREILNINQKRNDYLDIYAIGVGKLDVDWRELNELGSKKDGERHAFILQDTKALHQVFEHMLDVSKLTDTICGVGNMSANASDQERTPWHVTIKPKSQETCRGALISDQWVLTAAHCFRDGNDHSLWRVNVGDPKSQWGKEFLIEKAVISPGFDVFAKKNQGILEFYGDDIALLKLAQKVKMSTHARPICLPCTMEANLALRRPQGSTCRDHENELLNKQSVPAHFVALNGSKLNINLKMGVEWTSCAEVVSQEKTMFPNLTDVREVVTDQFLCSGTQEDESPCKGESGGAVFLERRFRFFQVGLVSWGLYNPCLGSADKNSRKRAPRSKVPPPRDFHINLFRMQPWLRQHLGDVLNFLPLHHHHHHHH"}, "[2]": {"biological_target": "T2, human C2 D282A (human, UniProt P06681 21-752)", "T2 sequence": "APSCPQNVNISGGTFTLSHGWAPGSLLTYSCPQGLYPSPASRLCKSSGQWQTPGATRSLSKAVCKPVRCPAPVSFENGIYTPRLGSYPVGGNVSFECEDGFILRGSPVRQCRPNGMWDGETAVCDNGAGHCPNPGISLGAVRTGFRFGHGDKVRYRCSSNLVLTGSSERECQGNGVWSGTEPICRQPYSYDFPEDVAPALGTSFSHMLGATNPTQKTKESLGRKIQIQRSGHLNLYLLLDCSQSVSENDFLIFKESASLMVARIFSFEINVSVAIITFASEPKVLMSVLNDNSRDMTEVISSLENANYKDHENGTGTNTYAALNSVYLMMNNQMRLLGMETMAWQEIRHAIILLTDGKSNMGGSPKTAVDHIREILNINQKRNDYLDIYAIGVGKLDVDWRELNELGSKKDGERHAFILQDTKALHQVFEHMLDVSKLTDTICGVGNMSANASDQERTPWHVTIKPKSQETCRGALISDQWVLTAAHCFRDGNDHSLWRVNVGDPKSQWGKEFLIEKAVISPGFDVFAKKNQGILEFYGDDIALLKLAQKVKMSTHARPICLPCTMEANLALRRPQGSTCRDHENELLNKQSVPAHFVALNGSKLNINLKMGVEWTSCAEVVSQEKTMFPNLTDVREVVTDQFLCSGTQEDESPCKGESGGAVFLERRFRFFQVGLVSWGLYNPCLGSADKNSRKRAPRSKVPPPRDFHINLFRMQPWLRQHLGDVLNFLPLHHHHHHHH"}, "[3]": {"biological_target": "T3, human C2 F270A (human, UniProt P06681 21-752)", "T3 sequence": "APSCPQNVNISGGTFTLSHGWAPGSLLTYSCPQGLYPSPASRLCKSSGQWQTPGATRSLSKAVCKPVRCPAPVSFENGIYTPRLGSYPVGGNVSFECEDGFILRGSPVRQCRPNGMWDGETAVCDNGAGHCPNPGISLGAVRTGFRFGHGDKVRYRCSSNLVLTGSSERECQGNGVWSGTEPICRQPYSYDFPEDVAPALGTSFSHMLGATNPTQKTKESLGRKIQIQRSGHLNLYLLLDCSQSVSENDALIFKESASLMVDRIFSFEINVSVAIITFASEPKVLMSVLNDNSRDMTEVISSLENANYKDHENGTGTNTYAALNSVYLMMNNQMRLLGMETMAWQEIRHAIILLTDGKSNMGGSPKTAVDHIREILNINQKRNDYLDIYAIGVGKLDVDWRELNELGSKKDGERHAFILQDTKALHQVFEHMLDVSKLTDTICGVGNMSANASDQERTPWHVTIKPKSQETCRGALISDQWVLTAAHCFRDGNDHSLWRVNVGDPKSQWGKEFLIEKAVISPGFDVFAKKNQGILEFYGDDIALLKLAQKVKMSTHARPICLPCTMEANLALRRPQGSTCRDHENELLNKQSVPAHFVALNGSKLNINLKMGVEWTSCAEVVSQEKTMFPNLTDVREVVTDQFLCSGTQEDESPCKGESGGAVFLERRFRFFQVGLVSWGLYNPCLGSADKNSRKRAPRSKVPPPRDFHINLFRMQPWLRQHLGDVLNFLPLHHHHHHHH"}, "[4]": {"biological_target": "T4, human C2 N325A (human, UniProt P06681 21-752)", "T4 sequence": "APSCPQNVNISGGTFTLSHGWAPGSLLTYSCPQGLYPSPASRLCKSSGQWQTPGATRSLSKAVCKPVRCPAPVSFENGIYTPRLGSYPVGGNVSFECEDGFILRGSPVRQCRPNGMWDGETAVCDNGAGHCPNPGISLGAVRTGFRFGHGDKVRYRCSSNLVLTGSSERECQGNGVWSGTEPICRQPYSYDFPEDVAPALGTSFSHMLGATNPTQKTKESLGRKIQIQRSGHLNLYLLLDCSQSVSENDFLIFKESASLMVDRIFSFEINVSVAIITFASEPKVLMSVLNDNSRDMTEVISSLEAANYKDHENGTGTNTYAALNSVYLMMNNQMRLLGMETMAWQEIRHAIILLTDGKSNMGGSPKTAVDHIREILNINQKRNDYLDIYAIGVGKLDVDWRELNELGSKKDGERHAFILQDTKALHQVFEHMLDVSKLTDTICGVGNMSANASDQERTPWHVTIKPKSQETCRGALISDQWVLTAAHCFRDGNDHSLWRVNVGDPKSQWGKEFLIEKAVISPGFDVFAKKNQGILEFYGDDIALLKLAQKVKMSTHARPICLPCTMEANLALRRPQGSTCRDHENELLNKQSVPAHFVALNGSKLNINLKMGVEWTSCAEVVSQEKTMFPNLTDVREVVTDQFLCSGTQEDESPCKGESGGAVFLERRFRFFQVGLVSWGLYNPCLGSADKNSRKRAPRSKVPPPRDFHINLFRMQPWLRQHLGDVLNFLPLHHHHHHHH"}}}
{"binder": "B1", "values": [{"measurement": "Fold diff", "setting": "[1]", "result": 2, "unit": "fold"}, {"measurement": "Fold diff", "setting": "[2]", "result": 1, "unit": "fold"}, {"measurement": "Fold diff", "setting": "[3]", "result": 15, "unit": "fold"}, {"measurement": "Fold diff", "setting": "[4]", "result": 6, "unit": "fold"}]}
